Kd data for 3 substances are collected here from publication PMC7192382.

This series relates to MtKNOX3 homeodomain (Medicago truncatula). In words: SPR. As to conditions: SPR: PBS (150 mM NaCl, 2 mM Na2HPO4)/Tween pH 7.4, BSA 670 ug/ml, protein 0-10 uM, temperature not stated; EMSA: LightShift binding buffer (stock as printed …).

Turning to IPT3-1 (MtIPT3 promoter site), the Kd (commonly the free concentration of one partner at which half of the binding sites on the other are occupied at equilibrium, for simple one-to-one binding) was 2220 nM.

For LOG2-1 (MtLOG2 promoter site), the Kd stood at 28000 nM.

For LOG1 (MtLOG1 first intron site), the Kd is 555 nM.
